Biological target: SARS-CoV-2 RBD protein (immobilised in SPR) (SARS-CoV-2, UniProt P0DTC2 319-541)
Assay: SPR

B1: mAb 35B5 (antibody, V domains shown)
VH: QVQLLESGGGLVQPGRSLRLSCAASGFTFDDYAMHWVRQAPGKGLEWVSGVSWNSGTIGYADSVKGRFTISRDNAKNSLYLHMRSLRAEDTALYYCAKAVEMVRGLMGLGADPEYGMDVWGQGTTVTVSS
VL: not shown
B1 showed a koff of 5.49e-06 s⁻¹.

— publication PMC8980211 (2022)
